Reference: patent publication US20210371867A1 (SYSMEX, published 2021)
Numbering of substitutions follows the chain as printed.

T1: human CD80/B7-1 protein (His tag) (human, UniProt P33681 35-242)
T1 construct: Recombinant His-tagged protein used as the antigen solution; also called antigen
T1 sequence (looked up): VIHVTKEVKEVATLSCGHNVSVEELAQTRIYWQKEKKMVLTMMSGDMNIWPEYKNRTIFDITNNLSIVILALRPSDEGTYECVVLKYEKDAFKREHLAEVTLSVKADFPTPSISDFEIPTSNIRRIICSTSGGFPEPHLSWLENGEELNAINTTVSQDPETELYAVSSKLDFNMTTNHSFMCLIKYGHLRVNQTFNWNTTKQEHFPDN

B1: ALP fusion antibody of Example 1 (GS1 linker): Fab of rabbit anti-CD80 antibody, Fd-GS1-BIAPII (Fab)
heavy: QSVEESGGRLVTPGTPLTLTCTASGFSLSNNAVSWVRQAPGEGLEWIGTISSNDNTYYATWAKGRFTISKTSTTVDLKITSPTTEDTATYFCAIYYYGYGYVFNLWGPGTLVTVSSGQPKAPSVFPLAPCCGDTPSSTVTLGCLVKGYLPEPVTVTWNSGTLTNGVRTFPSVRQSSGLYSLSSVVSVTSSSQPVTCNVAHPATNTKVDKTVAPSTCSKPTGGGGSLIPAEEENPAFWNRQAAQALDVAKKLQPIQTAAKNVILFLGDGMGVPTVTATRILKGQMNGKLGPETPLAMDQFPYVALSKTYNVDRQVPDSAGTATAYLCGVKGNYRTIGVSAAARYNQCNTTRGNEVTSVINRAKKAGKAVGVVTTTRVQHASPAGAYAHTVNRNWYSDADLPADAQKNGCQDIAAQLVYNMDIDVILGGGRMYMFPEGTPDPEYPDDASVNGVRKDKQNLVQEWQAKHQGAQYVWNRTALLQAADDSSVTHLMGLFEPADMKYNVQQDHTKDPTLAEMTEAALQVLSRNPRGFYLFVEGGRIDHGHHDGKAYMALTEAIMFDNAIAKANELTSELDTLILVTADHSHVFSFGGYTLRGTSIFGLAPGKALDSKSYTSILYGNGPGYALGGGSRPDVNGSTSEEPSYRQQAAVPLASETHGGEDVAVFARGPQAHLVHGVQEETFVAHIMAFAGCVEPYTDCNLPAPA
light: ELVMTQTPASVSEPVGGTVTINCQASEDIYSSLAWYQQKPGQRPKLLMYYASTLASGVPSRFKGSGSGTEFTLTISDLECADAATYYCQSYYLSSSSRYGNAFGGGTEVVVKGDPVAPTVLIFPPAADQVATGTVTIVCVANKYFPDVTVTWEVDGTTQTTGIENSKTPQNSADCTYNLSSTLTLTSTQYNSHKEYTCKVTQGTTSVVQSFIG
notes: Fab-enzyme fusion; two ALP fusion Fab molecules form a complex by dimer formation of the ALP subunits; also called Fab-GS1-BIAPII; ALP fusion antibody (GS1 linker)
B2: ALP fusion antibody of Example 1 (GS2 linker): Fab of rabbit anti-CD80 antibody, Fd-GS2-BIAPII (Fab)
heavy: QSVEESGGRLVTPGTPLTLTCTASGFSLSNNAVSWVRQAPGEGLEWIGTISSNDNTYYATWAKGRFTISKTSTTVDLKITSPTTEDTATYFCAIYYYGYGYVFNLWGPGTLVTVSSGQPKAPSVFPLAPCCGDTPSSTVTLGCLVKGYLPEPVTVTWNSGTLTNGVRTFPSVRQSSGLYSLSSVVSVTSSSQPVTCNVAHPATNTKVDKTVAPSTCSKPTGGGGSGGGGSLIPAEEENPAFWNRQAAQALDVAKKLQPIQTAAKNVILFLGDGMGVPTVTATRILKGQMNGKLGPETPLAMDQFPYVALSKTYNVDRQVPDSAGTATAYLCGVKGNYRTIGVSAAARYNQCNTTRGNEVTSVINRAKKAGKAVGVVTTTRVQHASPAGAYAHTVNRNWYSDADLPADAQKNGCQDIAAQLVYNMDIDVILGGGRMYMFPEGTPDPEYPDDASVNGVRKDKQNLVQEWQAKHQGAQYVWNRTALLQAADDSSVTHLMGLFEPADMKYNVQQDHTKDPTLAEMTEAALQVLSRNPRGFYLFVEGGRIDHGHHDGKAYMALTEAIMFDNAIAKANELTSELDTLILVTADHSHVFSFGGYTLRGTSIFGLAPGKALDSKSYTSILYGNGPGYALGGGSRPDVNGSTSEEPSYRQQAAVPLASETHGGEDVAVFARGPQAHLVHGVQEETFVAHIMAFAGCVEPYTDCNLPAPA
light: B1 light
notes: Fab-enzyme fusion, dimer through the ALP subunits
B3: ALP fusion antibody of Example 1 (EK2 linker): Fab of rabbit anti-CD80 antibody, Fd-EK2-BIAPII (Fab)
heavy: B2 heavy with G221E, G222A, G223A, G224A, S225K, G226E, G227A, G228A, G229A, S230K
light: B1 light
notes: as for B2
B4: ALP fusion antibody of Example 1 (EK1 linker): Fab of rabbit anti-CD80 antibody, Fd-EK1-BIAPII (Fab)
heavy: B1 heavy with G221E, G222A, G223A, G224A, S225K
light: B1 light
notes: as for B2

Target: T1, human CD80/B7-1 protein (His tag)
Experiment: sandwich chemiluminescence ELISA; capture rabbit anti-CD80 IgG on plate, antigen 0.005-20 ng/mL, binder as detection antibody at 200 ng/mL
Protocol: Rabbit anti-CD80 antibody (IgG) was diluted with PBS to 1 μg/mL. The resulting antibody solution was added to a 96-well black plate at 100 μL/well and allowed to stand overnight at 4° C. to immobilize the antibody in the wells. After removing the antibody solution from the plate, Buffer I′ (100 mM HEPES, 1% BSA, 0.05% ProClin (trademark), 1 mM MgCl₂, 0.1 mM ZnCl₂, pH 8.0) was added at 300 μL/well and allowed to stand overnight at 4° C. for blocking. After removing the solution from the plate, a human CD80/B7-1 protein (His tag) solution (0.005, 0.020, 0.078, 0.313, 1.25, 5.0 or 20 ng/mL) was added as an antigen solution at 100 μL/well. The plate was shaken at room temperature at 500 rpm for 1 hour to perform an antigen-antibody reaction. The plate was washed three times with a HISCL washing solution (Sysmex Corporation), and then each ALP fusion antibody (200 ng/mL) of Example 1 diluted with Buffer I′ was added at 100 μL/well. The plate was shaken at room temperature at 500 rpm for 1 hour to perform an antigen-antibody reaction. After washing the plate with a HISCL washing solution three times, a HISCL R5 reagent (Sysmex Corporation) as a solution of a chemiluminescent substrate of ALP was added at 100 μL/well, and luminescence intensity was immediately measured with FLUOstar OPTIMA (BMG LABTECH).

binding result | Binder
binds | B1
binds | B2
binds | B3
binds | B4
